Laboratory results reported in article PMC11686378.

Target: Replication Protein A (RPA) heterotrimer from Pyrococcus abyssi, wild type (Pyrococcus abyssi)
Assay: BLI; RPA or RPA^ΔWH nucleoprotein filaments on a 3'-TEG-biotin 50-nt ssDNA held on streptavidin sensors; PriSL (1.56-100 nM) or PolD (15.62-1000 nM) in solution; steady-state analysis; 25 °C, buffer E with 0.2 mg/ml BSA

B1: DNA primase PriSL (PriS-PriL heterodimer) from P. abyssi, in solution (complex)
chain 1: MLLREVTKEERKEFYSNEWNAKQIPDFILQNLDKREFGFDHTGEGPSDRKNSYTDVRDLEDYIKATAPYAVYSSVAFYEKPQEMEGWLGAELVFDIDAKDLPLRRCNHEPGKVCPICLNDAKEIARDTLIVLKEELGFEDVHVVYSGRGYHIRVMDGWALSLDSKSRERILSFISASEIEDHSEFRKMLLERRGWFVLNHGYPRVFRLRFGYFILRVKVEHLINFGIRKNIAKRILDNKETIYEEFVRKGILAAFPDGVGIESLAKLFALSTRFSKAYFDGRVTVDLKRILRLPSTLHSKVGLIAKYIGNNERDVMRFNPFKHAVPKFRRKEVKEEYKRFLEENF
chain 2: MLDPFSEKAKELLKEFGSINDFLNSIPRIVDVEEVIERVKIASDRKLLEGFVDIEDIKDLAQFYALLGALSYSPYGLELELVKKANILLYSERIRREKEIRPEEISLRINKAIEFPIDDLKKIERVFGKLPEYTIHLAEFLDLIPGERLSEYYIYNGNVYLRKEDLIKVWMKAFERNIEKSVNMLYEIRDELPGFFREVLGGIKEVAEQEFGKSGEVKAGTLRPDLFPPCVKNALKGVPQGLRNYAITVLLTSFLSYARICPNPPRRNVRVKDCIDDIRIITDEILPLIIEAANRCSPPLFEDQPNEIKNIWYHLGFGYTANPKLEDSGNSTWYFPPNCDKIRANAPQLCTPDKHCKYVRNPLTYYLRRLYLEGRKNASKGGNERGEKRVLQQ
Work on B1 yielded a Kd of 24 nM.
